# Experimental data published in patent US20210292396A1.
# Where a chain is given by its changes, count along the chain named.
# B1: ePGT121.18.17 (ePGT121.18.H17 VH and ePGT121.17.L1 VL) (antibody, V domains shown)
# VH: QMQLQESGPGLVKPGETLSLTCSVSGASISSSYWSWLRETPGKGLEWIGYTHHSGDTNYAPSLKSRVTIGLDPSKNQVSLSLTSVTAADTAVYYCARTLHGRRIYGVVAFNEYYTYFYWPTWGKGTQVTVSS
# VL: SDISVAPGETVRITCGGESIGSRAVQWYQHRPGQAPRLIIYNNQDRPPGIPERFSGSPDIDFGTTATLTISNVEAGDEATYYCHIWDSRRPTNWELGPGTTLTVL
# B2: ePGT121.15.H2.L1 (antibody, V domains shown)
# VH: B1 VH with T68H, I69L, D72H, Y113W, Y114F, P120E, T121V
# VL: B1 VL with T14S, P32A, R37K, S71T, E95V, L96F, P98G
# Experiments:
# Experiment in all cases: cell-based or functional assay
# [1] = target: Env of HIV isolate ZM249.1 (clade C) (HIV)
# [2] = target: HIV Env of isolate 0013095-2.11 (HIV)
# [3] = target: HIV Env of isolate DU123.06 (HIV)
# [4] = target: Env of HIV isolate T255-34 (clade AG) (HIV)
# [5] = target: Env of HIV isolate ZM135.10a (clade C) (HIV)
# [6] = target: Env of HIV isolate CH117.4 (clade BC) (HIV)
# [7] = target: HIV Env of isolate CNE30 (HIV)
# [8] = target: Env of HIV isolate CM244.ec1 (clade AE) (HIV)
# [9] = target: Env of HIV isolate KNH1209.18 (clade A) (HIV)
# [10] = target: Env of HIV isolate 0260.v5.c36 (clade A) (HIV)
# [11] = target: Env of HIV isolate C1080.c3 (clade AE) (HIV)
# [12] = target: HIV Env of isolate X2131.C1.B5 (HIV)
# [13] = target: Env of HIV isolate X2278.C2.B6 (clade B) (HIV)
# [14] = target: Env of HIV isolate T280-5 (clade AG) (HIV)
# [15] = target: HIV Env of isolate 57128.vrc15 (HIV)
# [16] = target: HIV Env of isolate X1632.S2.B10 (HIV)
# [17] = target: Env of HIV isolate T33-7 (clade AG) (HIV)
# [18] = target: Env of HIV isolate HXB2.DG (clade B) (HIV)
# [19] = target: HIV Env of isolate CNE15 (HIV)
# [20] = target: Env of HIV isolate YU2.DG (clade B) (HIV)
# [21] = target: Env of HIV isolate TH966.8 (clade AE) (HIV)
# [22] = target: HIV Env of isolate ZM215.8 (HIV)
# [23] = target: Env of HIV isolate PVO.04 (clade B) (HIV)
# [24] = target: Env of HIV isolate DU172.17 (clade C) (HIV)
# [25] = target: Env of HIV isolate TRO.11 (clade B) (HIV)
# [26] = target: HIV Env of isolate NKU3006.ec1 (HIV)
# [27] = target: Env of HIV isolate SS1196.01 (clade B) (HIV)
# [28] = target: HIV Env of isolate 6644.v2.c33 (HIV)
# [29] = target: Env of HIV isolate ADA.DG (clade B) (HIV)
# [30] = target: Env of HIV isolate X1193.c1 (clade G) (HIV)
# [31] = target: HIV Env of isolate 16845-2.22 (HIV)
# [32] = target: Envelope protein of SIVmac251.30.SG3 (clade NA)
# [33] = target: Env of HIV isolate 6405.v4.c34 (clade D) (HIV)
# [34] = target: Env of HIV isolate DU123.06 (clade C) (HIV)
# [35] = target: Env of HIV isolate A03349M1.vrc4a (clade D) (HIV)
# [36] = target: Env of HIV isolate CAAN.A2 (clade B) (HIV)
# [37] = target: Env of HIV isolate T251-18 (clade AG) (HIV)
# [38] = target: Env of HIV isolate BB201.B42 (clade A) (HIV)
# [39] = target: Env of HIV isolate 89.6.DG (clade B) (HIV)
# [40] = target: Env of HIV isolate BB539.2B13 (clade A) (HIV)
# [41] = target: HIV Env of isolate 286.36 (HIV)
# [42] = target: HIV Env of isolate ZM53.12 (HIV)
# [43] = target: Env of HIV isolate Bal.01 (clade B) (HIV)
# [44] = target: Env of HIV isolate 288.38 (clade C) (HIV)
# [45] = target: Env of HIV isolate CNE4 (clade B) (HIV)
# [46] = target: Env of HIV isolate ZM215.8 (clade C) (HIV)
# [47] = target: Env of HIV isolate 3415.v1.c1 (clade A) (HIV)
# [48] = target: Env of HIV isolate BJOX009000.02.4 (clade AE) (HIV)
# [49] = target: HIV Env of isolate CNE7 (HIV)
binder,measurement,setting,value
B1,"IC50, pseudovirus neutralization",[1],0.332 µg/mL
same,"IC80, pseudovirus neutralization",[2],13.4 µg/mL
same,"IC80, pseudovirus neutralization",[3],0.013 µg/mL
same,"IC50, pseudovirus neutralization",[4],0.032 µg/mL
same,"IC50, pseudovirus neutralization",[5],0.145 µg/mL
same,"IC50, pseudovirus neutralization",[6],> 50 µg/mL
same,"IC80, pseudovirus neutralization",[7],0.047 µg/mL
same,"IC50, pseudovirus neutralization",[8],7.23 µg/mL
same,"IC50, pseudovirus neutralization",[9],0.003 µg/mL
same,"IC50, pseudovirus neutralization",[10],0.009 µg/mL
same,"IC50, pseudovirus neutralization",[11],> 50 µg/mL
same,"IC80, pseudovirus neutralization",[12],0.007 µg/mL
same,"IC50, pseudovirus neutralization",[13],0.003 µg/mL
same,"IC50, pseudovirus neutralization",[14],0.006 µg/mL
same,"IC80, pseudovirus neutralization",[15],0.038 µg/mL
same,"IC80, pseudovirus neutralization",[16],> 50 µg/mL
same,"IC50, pseudovirus neutralization",[17],> 50 µg/mL
same,"IC50, pseudovirus neutralization",[18],0.016 µg/mL
same,"IC80, pseudovirus neutralization",[19],> 50 µg/mL
same,"IC50, pseudovirus neutralization",[20],0.011 µg/mL
same,"IC50, pseudovirus neutralization",[21],> 50 µg/mL
same,"IC80, pseudovirus neutralization",[22],0.048 µg/mL
same,"IC50, pseudovirus neutralization",[23],0.009 µg/mL
same,"IC50, pseudovirus neutralization",[24],0.007 µg/mL
same,"IC50, pseudovirus neutralization",[25],0.005 µg/mL
same,"IC80, pseudovirus neutralization",[26],> 50 µg/mL
same,"IC50, pseudovirus neutralization",[27],0.004 µg/mL
same,"IC80, pseudovirus neutralization",[28],0.015 µg/mL
same,"IC50, pseudovirus neutralization",[29],0.005 µg/mL
same,"IC50, pseudovirus neutralization",[30],0.005 µg/mL
same,"IC80, pseudovirus neutralization",[31],0.629 µg/mL
same,"IC50, pseudovirus neutralization",[32],> 50 µg/mL
same,"IC50, pseudovirus neutralization",[33],0.004 µg/mL
same,"IC50, pseudovirus neutralization",[34],0.004 µg/mL
same,"IC50, pseudovirus neutralization",[35],0.009 µg/mL
same,"IC50, pseudovirus neutralization",[36],0.004 µg/mL
same,"IC50, pseudovirus neutralization",[37],0.041 µg/mL
same,"IC50, pseudovirus neutralization",[38],0.003 µg/mL
same,"IC50, pseudovirus neutralization",[39],0.004 µg/mL
same,"IC50, pseudovirus neutralization",[40],> 50 µg/mL
same,"IC80, pseudovirus neutralization",[41],0.006 µg/mL
same,"IC80, pseudovirus neutralization",[42],0.079 µg/mL
same,"IC50, pseudovirus neutralization",[43],0.003 µg/mL
same,"IC50, pseudovirus neutralization",[44],0.002 µg/mL
same,"IC50, pseudovirus neutralization",[45],0.008 µg/mL
same,"IC50, pseudovirus neutralization",[46],0.016 µg/mL
same,"IC50, pseudovirus neutralization",[47],0.062 µg/mL
same,"IC50, pseudovirus neutralization",[48],0.156 µg/mL
same,"IC80, pseudovirus neutralization",[49],0.017 µg/mL
B2,neutralization (Table 6 value),[7],0.00312
